According to patent publication EP4574844A1 (Numab Therapeutics AG, dated 2025):

B1: PRO3851 (bispecific antibody, human IgG1, kappa, L234A L235A)
heavy 1: not shown
heavy 2: QVQLQESGGGLVQPGGSLRLSCAASAYTISRNSMGWFRQAPGKGLEGVAAIESDGSTSYSDSVKGRFTISLDNSKNTLYLEMNSLRAEDTAVYYCAAPKVGLGPRTALGHLAFMTLPALNYWGQGTLVTVSSGGGGSGGGGSGGGGSGGGGSQVQLQESGGGLVQPGGSLRLSCAASAYTISRNSMGWFRQAPGKGLEGVAAIESDGSTSYSDSVKGRFTISLDNSKNTLYLEMNSLRAEDTAVYYCAAPKVGLGPRTALGHLAFMTLPALNYWGQGTLVTVSSDKTHTCPPCPAPEAAGGPSVFLFPPKPKDTLMISRTPEVTCVVVDVSHEDPEVKFNWYVDGVEVHNAKTKPREEQYNSTYRVVSVLTVLHQDWLNGKEYKCKVSNKALPAPIEKTISKAKGQPREPQVCTLPPSRDELTKNQVSLSCAVKGFYPSDIAVEWESNGQPENNYKTTPPVLDSDGSFFLVSKLTVDKSRWQQGNVFSCSVMHEALHNHYTQKSLSLSPG
light: DIQMTQSPSSVSASVGDRVTITCRASQGISRWLAWYQQKPGKAPKLLIYAASSLQSGVPSRFSGSGSGTDFTLTISSLQPEDFATYYCQQTVSFPITFGGGTKVEIKRTVAAPSVFIFPPSDEQLKSGTASVVCLLNNFYPREAKVQWKVDNALQSGNSQESVTEQDSKDSTYSLSSTLTLSKADYEKHKVYACEVTHQGLSSPVTKSFNRGEC
B2: PRO3696 (scFv)
scFv: DVQMTQSPSSLSASVGDRVTITCQASQSIGLNLAWYQQKPGKPPKLLIYAGGYLASGVSSRFSGSGSGTDFTLTISSLQPEDFATYYCQSTYDGSSFVFAFGTGTKVTVLGGGGGSGGGGSGGGGSGGGGSQEQLVESGGGLVQPGGSLRLSCAASGFSFSSSSYMCWVRQAPGKGLEWIACMVTGSSDDTDYASWAKGRFTISKDNSKNTVYLQMNSLRAEDSAVYFCARAGSAPLWGQGTLVKVSS
notes: anti-LILRB2 scFv; also called 69-01-E02-sc06
B3: PRO3744 (scFv)
scFv: DVQMTQSPSSLSASVGDRVTITCQASQSIGSNLAWYQQKPGKPPKLLIYKGGTLESGVPSRFSGSGSGTDFTLTISSLQPEDFATYYCQSTAGSSRSGNYGYVFGCGTKVTVLGGGGGSGGGGSGGGGSGGGGSQQLVESGGGLVQPGGSLRLSCAASGFSFTNNYYMCWVRQAPGKCLEWIACMLVGAWGNTYYASWANGRFTISKDNSKNTVYLQMNSLRAEDSAVYFCARARDYTWTLGGDPETSGFNLWGQGTLVKVSS
notes: anti-LILRB2 scFv; also called 68-18-E11-sc07
B4: PRO4672 (antibody)
chain 1: DVQMTQSPSSLSASVGDRVTITCQASQSISSWVSWYQQKPGKPPKLLIYRGGYLESGVPSRFSASGSGTDFTLTISSLQPEDFATYYCQSTDSSTYGGAFGCGTKVTVLGGGGGSGGGGSGGGGSGGGGSQQVVESGGGLVQPGGSLRLSCAVSGIDLNSYAMTWVRQAPGKCLEWIGYIGSASSTYYASWASGRFTISKDNSKNTVYLQMNSLRAEDSAVYFCARGSTYINIWGQGTLVKVSSEPKSSDKTHTCPPCPAPELLGGPSVFLFPPKPKDTLMISRTPEVTCVVVDVSHEDPEVKFNWYVDGVEVHNAKTKPREEQYNSTYRVVSVLTVLHQDWLNGKEYKCKVSNKALPAPIEKTISKAKGQPREPQVYTLPPCREEMTKNQVSLSCAVKGFYPSDIAVEWESNGQPENNYKTTPPVLDSDGSFFLVSKLTVDKSRWQQGNVFSCSVMHEALHNHYTQKSLSLSPGKGGGGSGGGGSDVQMTQSPSSLSASVGDRVTITCQASQSIGSNLAWYQQKPGKPPKLLIYKGGTLESGVPSRFSGSGSGTDFTLTISSLQPEDFATYYCQSTAGSSRSGNYGYVFGCGTKVTVLGGGGGSGGGGSGGGGSGGGGSQQLVESGGGLVQPGGSLRLSCAASGFSFTNNYYMCWVRQAPGKCLEWIACMLVGAWGNTYYASWANGRFTISKDNSKNTVYLQMNSLRAEDSAVYFCARARDYTWTLGGDPETSGFNLWGQGTLVKVSS
chain 2: not shown
notes: trispecific anti-PDL1 x CD47 x LILRB2, (scFv)2-Fc-(scFv)2, 37-20-B03-based PDL1-BD
B5: PRO5055 (antibody, human IgG1, kappa)
chain: B4 chain 1
heavy: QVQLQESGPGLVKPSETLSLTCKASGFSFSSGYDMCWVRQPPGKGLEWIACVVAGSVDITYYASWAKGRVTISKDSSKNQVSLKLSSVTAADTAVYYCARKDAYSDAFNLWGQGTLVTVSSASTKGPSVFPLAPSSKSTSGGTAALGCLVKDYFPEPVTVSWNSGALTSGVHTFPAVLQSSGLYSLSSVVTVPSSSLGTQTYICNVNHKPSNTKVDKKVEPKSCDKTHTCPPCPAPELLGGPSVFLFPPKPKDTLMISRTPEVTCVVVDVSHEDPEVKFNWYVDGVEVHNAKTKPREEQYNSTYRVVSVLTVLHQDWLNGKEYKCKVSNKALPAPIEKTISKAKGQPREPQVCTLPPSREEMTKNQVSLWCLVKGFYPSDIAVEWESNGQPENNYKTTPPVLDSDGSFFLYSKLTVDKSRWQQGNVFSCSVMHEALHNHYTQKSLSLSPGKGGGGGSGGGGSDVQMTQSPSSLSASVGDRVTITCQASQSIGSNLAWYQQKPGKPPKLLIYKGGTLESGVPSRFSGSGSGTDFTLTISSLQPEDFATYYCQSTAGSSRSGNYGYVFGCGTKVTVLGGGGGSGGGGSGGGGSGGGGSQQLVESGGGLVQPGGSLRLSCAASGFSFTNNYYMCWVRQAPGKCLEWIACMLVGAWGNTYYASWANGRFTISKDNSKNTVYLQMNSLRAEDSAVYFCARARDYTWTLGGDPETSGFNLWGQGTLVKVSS
light: DIQMTQSPSSLSASVGDRVTITCQASQSINDYLAWYQQKPGKAPKLLIYKGGTLASGVPSRFSGSGSGTDFTLTISSLQPEDFATYYCQQGYIITDIDNVFGQGTKVEIKRTVAAPSVFIFPPSDEQLKSGTASVVCLLNNFYPREAKVQWKVDNALQSGNSQESVTEQDSKDSTYSLSSTLTLSKADYEKHKVYACEVTHQGLSSPVTKSFNRGEC
notes: trispecific anti-PDL1 x CD47 x LILRB2; PDL1-BD as Fab; also called PRO4687 with 33-03-G02-based PDL1-BD
B6: PRO5052 (antibody)
chain 1: B4 chain 1
chain 2: not shown
notes: trispecific anti-PDL1 x CD47 x LILRB2, (scFv)2-Fc-(scFv)2; also called PRO4672 with 33-03-G02-based PDL1-BD

Key:
[1] = molecular target: T1, human CD47 on the cell surface (human, UniProt Q08722 19-323); test: cell-based or functional assay
[2] = molecular target: T1, human CD47 on the cell surface; test: cell-based or functional assay; remark: listed apart in the source
[3] = molecular target: T1, human CD47 on the cell surface; test: cell-based or functional assay; remark: listed apart in the source
[4] = molecular target: T2, human LILRB2 on the cell surface (human, UniProt Q8N423 22-597); test: flow cytometry, CHO K1 cells expressing human LILRB2
T2 construct: whole, on cells; also called CHO K1 cells expressing human LILRB2; LILRB2 on HMDMs
T2 sequence (Q8N423 22-597): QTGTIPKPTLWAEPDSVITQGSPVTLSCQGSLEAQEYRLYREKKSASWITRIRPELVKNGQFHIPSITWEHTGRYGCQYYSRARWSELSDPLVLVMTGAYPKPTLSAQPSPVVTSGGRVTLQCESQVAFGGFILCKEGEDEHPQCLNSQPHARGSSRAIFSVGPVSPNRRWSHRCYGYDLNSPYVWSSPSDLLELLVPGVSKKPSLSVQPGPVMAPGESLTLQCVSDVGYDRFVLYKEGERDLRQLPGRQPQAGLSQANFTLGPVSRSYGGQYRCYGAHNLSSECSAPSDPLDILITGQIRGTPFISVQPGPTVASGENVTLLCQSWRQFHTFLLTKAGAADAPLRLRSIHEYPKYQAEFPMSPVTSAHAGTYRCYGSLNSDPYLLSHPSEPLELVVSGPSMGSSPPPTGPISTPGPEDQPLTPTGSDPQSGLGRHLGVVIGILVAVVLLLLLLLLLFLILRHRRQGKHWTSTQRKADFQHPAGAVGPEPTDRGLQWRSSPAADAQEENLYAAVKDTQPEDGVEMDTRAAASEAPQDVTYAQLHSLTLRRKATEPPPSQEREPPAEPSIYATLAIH

[5] = molecular target: T2, human LILRB2 on the cell surface; test: flow cytometry, CHO cells expressing LILRB2; competitor HLA-A0301 dextramer
[6] = molecular target: T2, human LILRB2 on the cell surface; test: flow cytometry, CHO cells expressing LILRB2; competitor HLA-G tetramer; reference PRO2518
recombinant human LILRB2 [7] = molecular target: T3, recombinant human LILRB2 (human, UniProt Q8N423 22-460, limits assumed); test: SPR, LILRB2 immobilised, scFv as analyte
T3 construct: also called ILT4
T3 sequence (Q8N423 22-460 limits assumed): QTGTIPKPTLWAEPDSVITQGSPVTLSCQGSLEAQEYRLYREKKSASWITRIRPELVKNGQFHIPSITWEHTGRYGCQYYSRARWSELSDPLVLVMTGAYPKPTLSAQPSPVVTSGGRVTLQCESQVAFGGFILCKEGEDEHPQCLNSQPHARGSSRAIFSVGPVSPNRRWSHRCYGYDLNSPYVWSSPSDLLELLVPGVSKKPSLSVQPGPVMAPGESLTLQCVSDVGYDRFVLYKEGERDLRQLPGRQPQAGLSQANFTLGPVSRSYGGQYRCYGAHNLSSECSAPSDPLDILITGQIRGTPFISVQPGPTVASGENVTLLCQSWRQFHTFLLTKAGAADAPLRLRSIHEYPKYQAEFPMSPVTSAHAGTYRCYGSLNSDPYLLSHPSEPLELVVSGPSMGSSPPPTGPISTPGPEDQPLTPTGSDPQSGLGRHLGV

[8] = molecular target: T2, human LILRB2 on the cell surface; test: flow cytometry, CHO cells expressing LILRB2; competitor HLA-G tetramer
[9] = molecular target: human PD-L1 on the cell surface (human, UniProt Q9NZQ7 19-290); test: cell-based or functional assay
[10] = molecular target: T2, human LILRB2 on the cell surface; test: cell-based or functional assay
[11] = molecular target: T2, human LILRB2 on the cell surface; test: cell-based or functional assay; remark: listed apart in the source
recombinant human CD47 = recombinant human CD47 (human, UniProt Q08722 19-139, limits assumed); test: SPR, antigen immobilised, antibody as analyte
recombinant human PDL1 = molecular target: T4, recombinant human PDL1 (human, UniProt Q9NZQ7 19-238, limits assumed); test: SPR, antigen immobilised, antibody as analyte
T4 construct: SPR antigen; also called CD274; B7-H1

recombinant human LILRB2 [12] = molecular target: T3, recombinant human LILRB2; test: SPR, antibody captured by anti-framework IgG, antigen as analyte (without avidity)
[13] = molecular target: T5, recombinant cynomolgus PDL1 (cynomolgus monkey, UniProt G7PSE7 19-238); test: SPR, antigen immobilised, antibody as analyte
T5 construct: also called cynom; PDL1
T5 sequence (G7PSE7 entry or part of it): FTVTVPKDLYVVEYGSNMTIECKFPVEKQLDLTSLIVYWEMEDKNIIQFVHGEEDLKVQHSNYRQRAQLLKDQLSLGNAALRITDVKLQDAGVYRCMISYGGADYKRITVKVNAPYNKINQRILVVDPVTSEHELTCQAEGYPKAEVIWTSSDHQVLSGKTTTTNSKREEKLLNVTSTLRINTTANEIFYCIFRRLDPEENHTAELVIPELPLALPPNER

[14] = molecular target: T6, recombinant cynomolgus CD47 (cynomolgus monkey, UniProt A0A2K5X523 19-139); test: SPR, antigen immobilised, antibody as analyte
T6 construct: also called cynom; CD47

Binder	CD47 driven EC50 [nM], phagocytosis of H292 cells [1]	CD47 driven EC50 [nM], phagocytosis of RBCs [1]	CD47 driven EC50 [nM], phagocytosis of Nalm6 cells [2]	CD47 driven EC50 [nM], phagocytosis of A375 cells [3]	PD-L1 driven EC50 [nM], phagocytosis of H292 cells [9]	CD86 EC50 [nM], re-polarization of M2 macrophages [10]	CD163 EC50 [nM], re-polarization of M2 macrophages [10]	CD206 EC50 [nM], re-polarization of M2 macrophages [10]	IL-1β EC50 [nM], LPS-driven cytokine secretion [11]	IL-6 EC50 [nM], LPS-driven cytokine secretion [11]	TNF-α EC50 [nM], LPS-driven cytokine secretion [11]	Kd (recombinant human CD47)	koff (recombinant human CD47)	kon (recombinant human CD47)	Kd (recombinant human PDL1)	koff (recombinant human PDL1)	kon (recombinant human PDL1)	Kd (recombinant human LILRB2 [12])	koff (recombinant human LILRB2 [12])	kon (recombinant human LILRB2 [12])	also measured
B1	1.82 nM	3 nM	0.99 nM	0.9 nM	–	–	–	–	–	–	–	–	–	–	–	–	–	–	–	–	–
B2	–	–	–	–	–	–	–	–	–	–	–	–	–	–	–	–	–	–	–	–	EC50 [4]: 0.796 nM; IC50 [5]: 0.867 nM; Rel. max. inhibition % (rel. to J-19) [6]: 98.4%; Kd (recombinant human LILRB2 [7]): 0.226 nM; koff (recombinant human LILRB2 [7]): 0.000166 s⁻¹; kon (recombinant human LILRB2 [7]): 736000 M⁻¹ s⁻¹; IC50 [8]: 1.08 nM
B3	–	–	–	–	–	–	–	–	–	–	–	–	–	–	–	–	–	–	–	–	EC50 [4]: 0.881 nM; IC50 [5]: 0.893 nM; Rel. max. inhibition % (rel. to J-19) [6]: 99.1%; Kd (recombinant human LILRB2 [7]): 0.148 nM; koff (recombinant human LILRB2 [7]): 0.000114 s⁻¹; kon (recombinant human LILRB2 [7]): 771000 M⁻¹ s⁻¹; IC50 [8]: 0.973 nM
B4	8.32 nM	39.4 nM	15.3 nM	–	0.32 nM	0.079 nM	0.067 nM	0.12 nM	0.096 nM	0.078 nM	0.123 nM	57.2 nM	0.0256 s⁻¹	448000 M⁻¹ s⁻¹	0.12 nM	0.000126 s⁻¹	1.05e+06 M⁻¹ s⁻¹	0.37 nM	8.9e-05 s⁻¹	240000 M⁻¹ s⁻¹	–
B5	10.9 nM	44.6 nM	–	12.1 nM	0.19 nM	0.085 nM	0.058 nM	0.128 nM	0.0705 nM	0.063 nM	0.141 nM	21 nM	0.011 s⁻¹	510000 M⁻¹ s⁻¹	0.016 nM	3.3e-05 s⁻¹	2.2e+06 M⁻¹ s⁻¹	0.35 nM	9.2e-05 s⁻¹	260000 M⁻¹ s⁻¹	Kd [13]: 0.0084 nM; Kd [14]: 21 nM
B6	10.9 nM	39.8 nM	–	19.3 nM	0.2 nM	0.082 nM	0.073 nM	0.134 nM	0.082 nM	0.077 nM	0.117 nM	34 nM	0.022 s⁻¹	660000 M⁻¹ s⁻¹	0.013 nM	2.9e-05 s⁻¹	2.3e+06 M⁻¹ s⁻¹	0.19 nM	5.4e-05 s⁻¹	290000 M⁻¹ s⁻¹	Kd [13]: 0.012 nM; Kd [14]: 32 nM
